Paper PMC4551934, “RNA aptamer inhibitors of a restriction endonuclease”
Where a chain is given by its changes, count along the chain named.

B1: anti-KpnI aptamer 24 (structured_RNA)
RNA: GGGAUAUCCUUCAUGGUGUGAUUAAACGUAAUCUCAAUCGAUCAUGCAUGAAGCGUUCCAUAUUUUU
B2: 20_26 nt (structured_RNA)
RNA: GGGUCGGAAAAGCGUAACCGCGGCCA
B3: anti-KpnI aptamer 20 (structured_RNA)
RNA: GGGAUAUCCUUCAUGAUUCGGAAAAGCGUAACCGCGGCCAAUCAUGCAUGAAGCGUUCCAUAUUUUU
B4: anti-KpnI aptamer 30 (structured_RNA)
RNA: B3 RNA with A40G
B5: anti-KpnI aptamer 29 (16/23/29) (structured_RNA)
RNA: GGGAUAUCCCUACAUGAUAAUCGGGUGAGUAAGGCCUAAACAUCAUGCAUGAAGCGUUCCAUAUUUUU
B6: aptamer 20s (38 nt) (structured_RNA)
RNA: GGGCAUGAUUCGGAAAAGCGUAACCGCGGCCAAUCAUG
B7: 20_AAA (structured_RNA)
RNA: B6 RNA with A15U, A17U

Key:
[1] = target: T1, BamHI(E111A) restriction endonuclease (UniProt P23940 1-213, E111A); experiment: EMSA; 20 nM protein; Kd EMSA: 10 mM Bis-Tris-Propane-HCl pH 7, 10 mM MgCl2, 100 ug/ml BSA, 37 C, 30 min; screen EMSA in selection buffers, 37 C: 10 mM HEPES pH 7.5 with 400 mM NaCl/; conditions: protein: commercial; chain copies: 2; label: 32P; hairpin
T1 sequence: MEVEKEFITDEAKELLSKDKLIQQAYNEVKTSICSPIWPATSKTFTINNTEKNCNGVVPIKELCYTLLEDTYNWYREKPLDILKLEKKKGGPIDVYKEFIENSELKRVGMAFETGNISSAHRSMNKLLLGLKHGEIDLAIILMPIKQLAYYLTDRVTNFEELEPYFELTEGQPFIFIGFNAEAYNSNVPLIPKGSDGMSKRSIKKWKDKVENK

[2] = target: KpnI restriction endonuclease (UniProt P25237 1-218); experiment: cleavage inhibition; 20 nM DNA probe N10; Kd EMSA: 10 mM Bis-Tris-Propane-HCl pH 7, 10 mM MgCl2, 100 ug/ml BSA, 37 C, 30 min; screen EMSA in selection buffers, 37 C: 10 mM HEPES pH 7.5 with 400 mM NaCl/; conditions: protein: commercial, chain copies: 2
Chain of KpnI restriction endonuclease (P25237 whole entry): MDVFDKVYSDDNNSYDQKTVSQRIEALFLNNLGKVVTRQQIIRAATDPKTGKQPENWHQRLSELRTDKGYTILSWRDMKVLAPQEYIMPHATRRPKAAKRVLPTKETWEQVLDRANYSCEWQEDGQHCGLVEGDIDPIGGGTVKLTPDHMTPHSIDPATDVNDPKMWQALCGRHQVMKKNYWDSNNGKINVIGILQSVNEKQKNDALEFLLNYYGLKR

Binder	binding result [1]	IC50 [2]	IC50 ([2]; label: 32P, hairpin)	IC50 ([2]; hairpin)
B1	no binding			
B2		77000 nM		
B3	no binding		36.1 ± 3.9 nM	
B4	no binding		23.1 ± 0.8 nM	
B5	no binding		153 ± 11 nM	
B6				13 ± 1.5 nM
B7		104000 nM		
